# Experimental data: article PMC12527917, “Regulation of kinesin-2 motility by its β-hairpin motif” (Nature Structural & Molecular Biology, 2025)
# B1: Kap3 (human) (natural protein, UniProt Q92845 1-792, looked up)
# chain: MQGEDARYLKRKVKGGNIDVHPSEKALIVHYEVEATILGEMGDPMLGERKECQKIIRLKSLNANTDITSLARKVVEECKLIHPSKLNEVEQLLYYLQNRRDSLSGKEKKEKSSKPKDPPPFEGMEIDEVANINDMDEYIELLYEDIPDKVRGSALILQLARNPDNLEELLLNETALGALARVLREDWKQSVELATNIIYIFFCFSSFSQFHGLITHYKIGALCMNIIDHELKRHELWQEELSKKKKAVDEDPENQTLRKDYEKTFKKYQGLVVKQEQLLRVALYLLLNLAEDTRTELKMRNKNIVHMLVKALDRDNFELLILVVSFLKKLSIFMENKNDMVEMDIVEKLVKMIPCEHEDLLNITLRLLLNLSFDTGLRNKMVQVGLLPKLTALLGNDNYKQIAMCVLYHISMDDRFKSMFAYTDCIPQLMKMLFECSDERIDLELISFCINLAANKRNVQLICEGNGLKMLMKRALKFKDPLLMKMIRNISQHDGPTKNLFIDYVGDLAAQISNDEEEEFVIECLGTLANLTIPDLDWELVLKEYKLVPYLKDKLKPGAAEDDLVLEVVIMIGTVSMDDSCAALLAKSGIIPALIELLNAQQEDDEFVCQIIYVFYQMVFHQATRDVIIKETQAPAYLIDLMHDKNNEIRKVCDNTLDIIAEYDEEWAKKIQSEKFRWHNSQWLEMVESRQMDESEQYLYGDDRIEPYIHEGDILERPDLFYNSDGLIASEGAISPDFFNDYHLQNGDVVGQHSFPGSLGMDGFGQPVGILGRPATAYGFRPDEPYYYGYGS
# notes: Kap3, human, synthesised gene; SNAPf labelled with SNAP-Cell TMR-Star in the TIRF colocalisation assay; No truncation is mentioned; probably the whole protein; source: Sf9 (baculovirus), purified (IgG Sepharose, TEV elution, SEC); not shown: ZZ, N-terminal, cleaved; SNAPf, N-terminal, kept
# How the values were obtained:
# Details in all cases: both partners purified
# Kif3A^ΔC103 = target: T1, Kif3A^ΔC103 (human, UniProt Q9Y496 1-596); test: SEC; motor subunits coexpressed in Sf9, purified through the ZZ tag of Kif3B/C on IgG Sepharose, TEV elution, Superose 6 Increase 3.2/300 in buffer A (50 mM Tris-HCl pH 7.5, 150 mM K-acetate, 2 mM Mg-acetate, 5% glycerol, 1 mM DTT, 0.2 mM Mg-ATP); SDS-PAGE of peak fraction
# T1 construct: Kif3A, human, 103 amino acids truncated from the C terminus; also called Kif3A^Δ103; source: Sf9 (baculovirus), coexpressed with Kif3B constructs, purified (IgG Sepharose, TEV elution, SEC); not shown: SNAPf, C-terminal, kept
# T1 sequence (Q9Y496 1-596, stated change not applied): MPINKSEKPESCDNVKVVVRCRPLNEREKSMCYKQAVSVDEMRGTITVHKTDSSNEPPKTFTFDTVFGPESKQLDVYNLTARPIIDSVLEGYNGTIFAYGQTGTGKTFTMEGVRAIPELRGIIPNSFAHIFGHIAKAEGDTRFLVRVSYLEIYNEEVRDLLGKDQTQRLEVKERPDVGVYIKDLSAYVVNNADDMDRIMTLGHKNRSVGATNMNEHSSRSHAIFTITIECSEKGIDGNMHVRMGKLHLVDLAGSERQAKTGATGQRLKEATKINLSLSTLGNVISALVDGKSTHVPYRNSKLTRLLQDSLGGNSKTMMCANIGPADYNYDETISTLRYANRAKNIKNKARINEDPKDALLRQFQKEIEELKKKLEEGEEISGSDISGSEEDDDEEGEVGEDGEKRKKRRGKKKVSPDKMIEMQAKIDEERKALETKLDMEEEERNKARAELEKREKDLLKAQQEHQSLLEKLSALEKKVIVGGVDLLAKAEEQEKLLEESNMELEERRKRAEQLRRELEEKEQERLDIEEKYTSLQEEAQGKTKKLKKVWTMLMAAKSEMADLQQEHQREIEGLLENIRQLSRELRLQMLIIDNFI
# [1] = target: T2, Kif3A–Kif3B^ΔC90 heterodimer (ΔInt3) (human, UniProt Q9Y496 1-699; O15066 1-657); test: single-molecule TIRF colocalisation; Alexa-Fluor-647-labelled Kif3AB/C constructs on surface-attached microtubules (1 mM AMPPNP in Fig. 4c), TMR-labelled Kap3 at 1 nM, buffer B, 25 °C; fraction of Kif3A spots with Kap3 signal
# T2 construct: Kif3A, human, synthesised gene, full-length subunit; Kif3B, human, 90 amino acids truncated from the C terminus; source: Sf9 (baculovirus), coexpressed, purified (IgG Sepharose, TEV elution, SEC); not shown: SNAPf, C-terminal, kept; ZZ, N-terminal, cleaved
# T2 sequence (Q9Y496 whole entry, stated change not applied, the tested form may be a part, one chain of several): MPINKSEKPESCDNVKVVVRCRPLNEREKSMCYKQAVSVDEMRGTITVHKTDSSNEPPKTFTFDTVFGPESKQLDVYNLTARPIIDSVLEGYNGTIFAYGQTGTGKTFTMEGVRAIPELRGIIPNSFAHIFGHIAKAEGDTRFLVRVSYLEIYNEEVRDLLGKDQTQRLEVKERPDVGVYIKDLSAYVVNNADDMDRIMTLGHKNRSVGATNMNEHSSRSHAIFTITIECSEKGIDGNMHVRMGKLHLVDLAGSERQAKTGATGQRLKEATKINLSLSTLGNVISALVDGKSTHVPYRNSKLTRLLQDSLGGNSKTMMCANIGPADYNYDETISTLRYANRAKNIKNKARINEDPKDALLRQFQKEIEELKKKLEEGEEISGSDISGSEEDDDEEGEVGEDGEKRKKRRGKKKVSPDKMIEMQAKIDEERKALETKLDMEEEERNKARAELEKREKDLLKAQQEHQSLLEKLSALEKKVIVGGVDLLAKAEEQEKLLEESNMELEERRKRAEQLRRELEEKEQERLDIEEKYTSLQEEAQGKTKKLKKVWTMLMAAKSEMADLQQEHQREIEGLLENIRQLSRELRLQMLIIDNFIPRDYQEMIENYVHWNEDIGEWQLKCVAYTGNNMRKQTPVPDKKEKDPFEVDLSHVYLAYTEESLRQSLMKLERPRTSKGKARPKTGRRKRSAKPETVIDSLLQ
# [2] = target: T3, Kif3A^ΔC89–Kif3B heterodimer (ΔInt1) (human, UniProt Q9Y496 1-610; O15066 1-747); test: as above
# T3 construct: Kif3A, human, 89 amino acids truncated from the C terminus (within the β-hairpin motif); Kif3B, human, synthesised gene, full-length subunit; also called Kif3A^Δ89B; source: Sf9 (baculovirus), coexpressed, purified (IgG Sepharose, TEV elution, SEC); not shown: SNAPf, C-terminal, kept; ZZ, N-terminal, cleaved
# T3 sequence (Q9Y496 1-610, stated change not applied, one chain of several): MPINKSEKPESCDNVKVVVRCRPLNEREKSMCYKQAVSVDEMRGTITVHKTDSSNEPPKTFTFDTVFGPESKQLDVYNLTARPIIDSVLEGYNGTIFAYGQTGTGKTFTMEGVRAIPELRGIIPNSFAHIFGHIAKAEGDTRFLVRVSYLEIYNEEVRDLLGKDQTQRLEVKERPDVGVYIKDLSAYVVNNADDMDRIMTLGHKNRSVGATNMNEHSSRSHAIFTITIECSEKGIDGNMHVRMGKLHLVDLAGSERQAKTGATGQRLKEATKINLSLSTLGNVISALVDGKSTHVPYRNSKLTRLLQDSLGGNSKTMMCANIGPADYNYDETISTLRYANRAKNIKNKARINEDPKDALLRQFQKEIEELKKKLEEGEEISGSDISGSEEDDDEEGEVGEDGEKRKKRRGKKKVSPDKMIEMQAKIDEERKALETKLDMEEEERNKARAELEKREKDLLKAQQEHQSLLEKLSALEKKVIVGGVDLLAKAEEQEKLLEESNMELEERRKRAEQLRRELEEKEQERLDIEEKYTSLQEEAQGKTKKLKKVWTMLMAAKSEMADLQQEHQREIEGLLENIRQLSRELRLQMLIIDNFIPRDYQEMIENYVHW
# [3] = target: T4, Kif3A–Kif3B^ΔC114 heterodimer (ΔInt2+3) (human, UniProt Q9Y496 1-699; O15066 1-633); test: as above
# T4 construct: Kif3A, human, synthesised gene, full-length subunit; Kif3B, human, 114 amino acids truncated from the C terminus; source: Sf9 (baculovirus), coexpressed, purified (IgG Sepharose, TEV elution, SEC); not shown: SNAPf, C-terminal, kept; ZZ, N-terminal, cleaved
# T4 sequence (Q9Y496 whole entry, stated change not applied, the tested form may be a part, one chain of several): as the sequence (Q9Y496 whole entry, stated change not applied, the tested form may be a part, one chain of several) above
# [4] = target: T5, Kif3AB heterodimer, full length (human, UniProt Q9Y496 1-699; O15066 1-747); test: as above
# T5 construct: Kif3A, human, synthesised gene, full-length subunit; Kif3B, human, synthesised gene, full-length subunit; SNAPf on Kif3A labelled with Alexa Fluor 647 in the TIRF assays; A Kif3A construct without SNAPf was also cloned; also called Kif3A–Kif3B; Kif3AB^WT; source: Sf9 (baculovirus), coexpressed, purified (IgG Sepharose, TEV elution, SEC); not shown: SNAPf, C-terminal, kept; ZZ, N-terminal, cleaved
# T5 sequence (Q9Y496 whole entry, one chain of several): as the sequence (Q9Y496 whole entry, stated change not applied, the tested form may be a part, one chain of several) above
# Kap3 (human) = target: B1; test: as above
binder,measurement,setting,value
"Kif3B^ΔC156 (domain or fragment, human, UniProt O15066 1-591, looked up, Kif3B, human, 156 amino acids truncated from the C terminus (removes the Kif3B β-hairpin motif); also called Kif3B^Δ156; source: Sf9 (baculovirus), coexpressed with Kif3A^ΔC103, purified (IgG Sepharose, TEV elution, SEC); not shown: ZZ, N-terminal, cleaved) MSKLKSSESVRVVVRCRPMNGKEKAASYDKVVDVDVKLGQVSVKNPKGTAHEMPKTFTFDAVYDWNAKQFELYDETFRPLVDSVLQGFNGTIFAYGQTGTGKTYTMEGIRGDPEKRGVIPNSFDHIFTHISRSQNQQYLVRASYLEIYQEEIRDLLSKDQTKRLELKERPDTGVYVKDLSSFVTKSVKEIEHVMNVGNQNRSVGATNMNEHSSRSHAIFVITIECSEVGLDGENHIRVGKLNLVDLAGSERQAKTGAQGERLKEATKINLSLSALGNVISALVDGKSTHIPYRDSKLTRLLQDSLGGNAKTVMVANVGPASYNVEETLTTLRYANRAKNIKNKPRVNEDPKDALLREFQEEIARLKAQLEKRSIGRRKRREKRREGGGSGGGGEEEEEEGEEGEEEGDDKDDYWREQQEKLEIEKRAIVEDHSLVAEEKMRLLKEKEKKMEDLRREKDAAEMLGAKIKAMESKLLVGGKNIVDHTNEQQKILEQKRQEIAEQKRREREIQQQMESRDEETLELKETYSSLQQEVDIKTKKLKKLFSKLQAVKAEIHDLQEEHIKERQELEQTQNELTRELKLKHLIIENFI",binding result,Kif3A^ΔC103,binds
B1,percent of Kif3AB molecules with colocalised Kap3,[1],62%
same,percent of Kif3AB molecules with colocalised Kap3,[2],26%
same,percent of Kif3AB molecules with colocalised Kap3,[3],50%
same,percent of Kif3AB molecules with colocalised Kap3,[4],82%
"Kif3B (human kinesin-2 motor subunit), full length (natural protein, UniProt O15066 1-747, looked up, Kif3B, human, synthesised gene, full-length subunit; source: Sf9 (baculovirus), coexpressed with Kif3A, purified (IgG Sepharose, TEV elution, SEC); not shown: ZZ, N-terminal, cleaved) MSKLKSSESVRVVVRCRPMNGKEKAASYDKVVDVDVKLGQVSVKNPKGTAHEMPKTFTFDAVYDWNAKQFELYDETFRPLVDSVLQGFNGTIFAYGQTGTGKTYTMEGIRGDPEKRGVIPNSFDHIFTHISRSQNQQYLVRASYLEIYQEEIRDLLSKDQTKRLELKERPDTGVYVKDLSSFVTKSVKEIEHVMNVGNQNRSVGATNMNEHSSRSHAIFVITIECSEVGLDGENHIRVGKLNLVDLAGSERQAKTGAQGERLKEATKINLSLSALGNVISALVDGKSTHIPYRDSKLTRLLQDSLGGNAKTVMVANVGPASYNVEETLTTLRYANRAKNIKNKPRVNEDPKDALLREFQEEIARLKAQLEKRSIGRRKRREKRREGGGSGGGGEEEEEEGEEGEEEGDDKDDYWREQQEKLEIEKRAIVEDHSLVAEEKMRLLKEKEKKMEDLRREKDAAEMLGAKIKAMESKLLVGGKNIVDHTNEQQKILEQKRQEIAEQKRREREIQQQMESRDEETLELKETYSSLQQEVDIKTKKLKKLFSKLQAVKAEIHDLQEEHIKERQELEQTQNELTRELKLKHLIIENFIPLEEKSKIMNRAFFDEEEDHWKLHPITRLENQQMMKRPVSAVGYKRPLSQHARMSMMIRPEARYRAENIVLLELDMPSRTTRDYEGPAIAPKVQAALDAALQDEDEIQVDASSFESTANKKSKARPKSGRKSGSSSSSSGTPASQLYPQSRGLVPK",binding result,Kap3 (human),binds
